Reference: the DeepSol protein solubility set

experiment: soluble on expression in E. coli; label from the status in PepcDB or PDB records

Row | Sequence | soluble on expression in E. coli
1 | MTSSTGTRRLTAKGRATRDRIVAAAAQLMYERGVTGTSTEDILKAARVASPSQLYHYFGDKRGLVQAVIEHQTEQVLGFQKPLLSRLDSIEALEAWRDAVVEAQHARDCQGGCPLGSLASELSDLDPQARARLVAGYEQWGNAIREGLRSMRERGELDGGADPDRLALALLTALQGGLLMTQTRRDTIALEAVLNTMIDHIRFRTTP | soluble
2 | MNGFDGLQEEESSDLKSIQKELAILKLKLSEQESLFNSITENTLAGYWIWDIPLNTMFISAHLKSMLGYADHELENSPETINMLMHPSDLPATYALLSKHVESDGKVPFEIEVRYKHKNGSIVWVICSGNIVTRDENGKPSKMIGCHLDNTELKKAQGVQKYTEELERKNVEMEQFAYVASHDLQEPLNTIQGFIALLSAKLEDAPDPDVTQYLHYINQSTLRMTNLIKGLLEYSRIGKNVVMSKIDCNQVITDVLMDLHIQVEETQADIEVTPLPFVMGYDIELRILFQNLISNALKFSVRRPVIKIYSVVEGGYFKFSVADNGIGIDPQFREKIFKLYQQLHPKSTYEGNGLGLAQCFKIVTELHSGSIWVESNEKEGSIFHFTIPYNA | not soluble
3 | MQAQTVVHPSIKTKTTFAIVVDQKSYDEAKSEIDAYRTSIEKEGLGTYLLIDDWKRPEPIREQLVKLHENEKTPLEGCVFIGDIPIPMIRDAHHLSSAFKRSPKANWQKSSVPSDRYYDDFGLKFDYIKQDSLIPDYHYMTLRADSKQYISPDIYSARIRPLHLEGENRYQMLRDYLKKAVAEKAKQNAFDQLTMARGHGYNSEDPLAWSGEQIALREQLPQIFKSGNTVKFYDFNMRYPMKPLYLNEIQREGLDVMLFHHHGGPTMQYINGYENGSGINLSIENAKIFLRSKVPSYAKKHGREAAIKEYAKQYGVPESWCAEAFDEEKIKSDSIVNRNMDIYTEDIRLLTPNARFILFDACFNGSFHLDDNIVGSYIFNKGKTIATMGCTVNTIQDKWPDEFLGLLAAGMRIGQFTRFTCFLENHLIGDPTFHFTNNAGLDMDINQALVAQEGNVTFWKKQLNSPMADMQAMALRQLSMANYSGLVELLKKSYHESNYFVVRLEALRLLALNYPTEVADVLQTAMNDSYELIRRYAVEYVEKNCNPELLPAWIESYLLRGHENRHRFRIFSAINTFDHDMALNELKKQAADWSFYDSSYVNELLEYLPRQKKGLERDFALIDSPESTTKQIQSEISRFRNKPIAKAIEPLLNIIKNESQEEELRILAAETLGWYNLYYNKADIIKELNTFRTSNQKLMNEVTKTINRLKSQNR | not soluble
4 | IVGGQECKDGECPWQALLINEENEGFCGGTILSEFYILTAAHCLYQAKRFKVRVGDRNTEQEEGGEAVHEVEVVIKHNRFTKETYDFDIAVLRLKTPITFRMNVAPACLPERDWAESTLMTQKTGIVSGFGRTHEKGRQSTRLKMLEVPYVDRNSCKLSSSFIITQNMFCAGYDTKQEDACQGDSGGPHVTRFKDTYFVTGIVSWGEGCARKGKYGIYTKVTAFLKWIDRSMKTRGLPKAKSHAPEVITSSPLK | soluble
5 | MDNFSLLTTPWLPVRFKDGSTGKLAPVDLADENVVDIAATRADLQGAAWQFLLGLLQCSIAPKRYKNWEDIWFDGLHADVLHKALAPLEHAFQFGAETPSFMQDFEPLSGEKVSIASLLPEIPGAQTTKFNKDHFVKRGVTERFCPHCAALALFSLQLNAPAGGKGYRTGLRGGGPLTTLVELQEYQGERQTPLWRKLWLNVMPQDTADLPLPDQCDATVFPWLAATRTSEQANAVTTPEQVNKLQAYWGMPRRIRLDFATLQSGCCDICGAESDELLGFMTVKNYGVNYDGWRHPLTPYRAPVKDQNAFFSVKPQPGGLIWRDWLGLSQNNQTEANYESPAQVVKVFNARSLTDVKAGIWGFGADFDNMKIRCWYEHHFPLLMTEGLIPDLRKAVQTAARLLSLLRSALKEAWFADAKGARGDFSFIDIDFWNLTQGRFLNLIHDLENGHKPDERLNKWQRELWLFTRHYFDDHVFTNPYESSDLERIMTARKKYFTTSAEKQSAKAAKAKKQEAAE | not soluble
6 | MGSDKIHHHHHHMTTTIQALEKHLQVRLLNRTTRKISLTPDGAVYYDRTARILADVADIESSFHDAERGPRGQLRIDVPVSIGRLILIPRLRDFHARYPDIDLVIGLNDRPVDLVGEAVDCAIRVGELKDSSLIARRIGTFQCATAASPIYLEKYGEPTSIEDLQKNHKAIHFFSSRTGRNFDWDFVVDDLIKSVSVRGRVSVNDGDAYIDLALQGFGIIQGPRYMLTNHLESGLLKEVLPQWTPAPMPISAVYLQNRHLSLKVKVFVDWVAELFAGCPLLGGTALPFDQKCEFACDKETGHEYTIRTLVEQHNIAEAYTLKT | not soluble
